Patent publication US12410253B2, “Compositions comprising anti-NRP2 antibodies” (aTyr Pharma, Inc., priority 2019, dated 2025)
Entries after “also recorded” stand apart in the source; their conditions may differ.

Key:
mouse NRP2 [1] = target: T1, mouse NRP2 (Mus musculus, UniProt O35375); assay: Epitope mapping: FACS staining of Expi293 cells expressing mouse NRP2 and b1 domain mutants; type: binding
T1 construct: host or cells: Expi293, transient transfection
T1 sequence (O35375 21-926 isoform O35375-4): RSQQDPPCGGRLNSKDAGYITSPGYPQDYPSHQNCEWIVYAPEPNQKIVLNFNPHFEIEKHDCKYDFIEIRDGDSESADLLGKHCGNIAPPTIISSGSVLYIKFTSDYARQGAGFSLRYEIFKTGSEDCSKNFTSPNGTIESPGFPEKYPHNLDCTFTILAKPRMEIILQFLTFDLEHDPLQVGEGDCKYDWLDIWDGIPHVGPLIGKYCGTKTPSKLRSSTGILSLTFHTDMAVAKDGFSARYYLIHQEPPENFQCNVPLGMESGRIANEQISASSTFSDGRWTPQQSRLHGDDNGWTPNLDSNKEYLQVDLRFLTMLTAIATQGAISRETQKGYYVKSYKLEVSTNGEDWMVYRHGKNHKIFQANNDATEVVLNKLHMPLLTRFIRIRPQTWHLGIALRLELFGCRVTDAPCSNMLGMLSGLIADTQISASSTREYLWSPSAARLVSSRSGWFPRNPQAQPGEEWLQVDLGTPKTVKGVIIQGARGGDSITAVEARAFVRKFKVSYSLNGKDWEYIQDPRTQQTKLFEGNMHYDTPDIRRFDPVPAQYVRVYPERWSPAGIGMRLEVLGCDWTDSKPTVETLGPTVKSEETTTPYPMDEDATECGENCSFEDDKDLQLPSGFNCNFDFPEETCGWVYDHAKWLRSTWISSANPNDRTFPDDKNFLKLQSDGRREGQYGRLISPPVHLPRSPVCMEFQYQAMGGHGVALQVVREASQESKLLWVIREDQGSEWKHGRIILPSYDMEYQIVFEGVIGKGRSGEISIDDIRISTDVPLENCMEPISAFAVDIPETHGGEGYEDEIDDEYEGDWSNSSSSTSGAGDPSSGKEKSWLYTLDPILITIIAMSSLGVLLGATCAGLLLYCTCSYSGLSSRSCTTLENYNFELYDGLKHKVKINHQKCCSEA
Experimental: (§1) Human NRP2a (version 2; see Table N1) and mouse NRP2v2 cDNAs were obtained from Origene. […] Human and mouse NRP2, expression vectors, along with expression vectors encoding all 6 mutants were transfected into Expi293 cells at 1 million cells/mL, by standard techniques. Approximately 40 hours post transfection cells were co-stained with aNRP2-10v10, and a species agnostic anti-NRP2 a1 specific binding antibody.

mouse NRP2 [2] = assay: as above; type: binding; conditions: MFI staining, antibody 10 nM, mutations made in isolation
Experimental: as §1

MDA-MB-231 cells = assay: 3D methylcellulose colony formation assay, MDA-MB-231; type: cell-based, human; conditions: antibody 100 nM in combination with Cisplatin (2 doses) or Bevacizumab (100 nM), compared to hIgG4
Text: Other experimental details are essentially the same as described in the previous example.

[3] = system: neo-lymphangiogenesis of the cornea; assay: Corneal alkali-burn injury model of neovascularization (LYVE-1 staining); type: in vivo, mouse; conditions: IP on Day 0, 3, 7 and 10; Day 14; compared to IgG control; p=0.07
Experimental: Study Design & Treatment Regimen. The study consisted of 40 female C57BL/6 mice separated into four groups. Prior to study, animals were randomized into four groups, 10 mice per group. On Day 0, neovascularization (NV) of the cornea was induced from alkali-burn injury in the eyes of animals under anesthesia. Animals were treated intraperitoneally with control IgG (Group 1), aNRP2-28 (Group 2) and Bevacizumab (Group 3) on post-injury Day 0, 3, 7 and 10. During the in-life phase, animals were monitored with daily clinical observations and weekly body weights. Additionally, ocular assessments of injured eyes were scored and photos taken on post-injury Day 7 and Day 14. All animals were euthanized on Day 14. Injured eyes from all animals were removed and dissected. Whole-mounted corneas were fixed, stained with LYVE-1, and analyzed immunohistochemically to examine the efficacy of Test Articles.

B1: aNRP2-10v10: humanized, affinity matured anti-NRP2 antibody, target domain b1, VEGF-C blocking; VH SEQ ID NO: 49, VL SEQ ID NO: 50 (antibody, V domains shown)
VH: EVQLVQSGAEVKKPGATVKISCKVSGFNIKDYYVHWVQQAPGKGLEWMGRIDVEDDETKYAPKFQGRVTITADTSTDTAYMELSSLRSEDTAVYYCATPIYGAREAWFAYWGQGTLVTVSS
VL: DIQMTQSPSSLSASVGDRVTITCTASSSVSSSYLHWYQQKPGKAPKLLIYRTSNLASGVPSRFSGSGSGTDFTLTISSLQPEDFATYYCHQYYRSPPTFGGGTKVEIK
modifications: Variable heavy chain region; Light chain variable region
Mouse NRP2 [1]
  binding to mouse NRP2 (wild type): binds specifically to the b1 domain of human NRP2, but not mouse NRP2; also recorded: does not cross react with mouse NRP2
Mouse NRP2 [2]
  binding activity to mouse NRP2 with mutations F299Y, K354N, and L416S: restored partial, but incomplete, binding activity
  binding to mouse NRP2 with mutations 1383V, M400A, and 1407V: no improvement in binding
MDA-MB-231 cells
  colony formation by MDA-MB-231 cells, methylcellulose: inhibitory effect; also recorded: significantly enhanced inhibition of colony formation
[3]
  neo-lymphangiogenesis, % Lyve-1+ area of cornea: clear trend towards reduced sprouting of lymphatic vessels
